This note sets out measurements from publication PMC7094341.

The target in this test is SARS-CoV papain-like protease (PLpro), trypsin-trimmed product of P-PLpro(C2)-His6 (SARS-CoV).

For “ISG15-AMC (full-length) (from UniProt P05161 1-157)”, the kcat/KM of hydrolysis of ISG15-AMC by PLpro (fluorescence, pH 7.8, 25 °C) was 602000 M⁻¹ s⁻¹.
